Where “and” joins values, the source holds several entries; their conditions need not be identical. Equal values may be shown once.
B1: Fc-MBL-OX40L (Fc fusion)
chain: not shown
notes: extracellular TNF homology domain (THD) of mouse OX40L (Tnfsf4), 51Ser-198Leu; Order N to C: Fc, PA, MBL, OX40L; Seen as dimer, hexamer and higher-order multimers on non-reducing gels; also called OX40L-fusion protein (B); not shown: Fc (human IgG1: hinge, CH2, CH3), N-terminal, kept
B2: MBL-OX40L (ligand)
chain: not shown
notes: extracellular TNF homology domain (THD) of mouse OX40L (Tnfsf4), 51Ser-198Leu; Seen as dimer, trimer and hexamer on non-reducing gels; also called OX40L-fusion protein (A)
B3: MBL-scOX40L (ligand)
chain: not shown
notes: extracellular TNF homology domain (THD) of mouse OX40L (Tnfsf4), 51Ser-198Leu; first of three copies; peptide linker; second of three copies; third of three copies; Order N to C: PA, MBL, OX40L, Linker, OX40L, Linker, OX40L, His6; Seen as dimer, trimer and multimers on non-reducing gels; also called OX40L-fusion protein (E); source: Anti PA tag Antibody Beads; not shown: His6, C-terminal, kept

Molecular target: the molecule itself
Assay: non-reducing SDS-PAGE and immunoblot; recombinant OX40L proteins in Laemmli sample buffer, non-heated/non-reducing, SDS-PAGE, immunoblot with anti-PA tag antibody; oligomers judged by molecular weight

Protein | stoichiometry N
B1 | 2 and 6
B2 | 2 and 3 and 6
B3 | 2 and 3
